According to patent US6656735, “Method for identification of target genes of transcription factors” (GSF Forschungszentrum Fuer Umwelt Und Gesundheit GmbH):

Assays:
[1] = molecular target: T1, Engrailed 2 full length (En2, ChEn2) (Gallus gallus, UniProt Q05917 Q05917:1-289); assay: EMSA; two shifted complexes; 20 mM Tris-HCl pH 7.9, 35 mM KCl, 2.5 mM MgCl2, poly-dIdC, on ice; details: label: 32P
T1 sequence: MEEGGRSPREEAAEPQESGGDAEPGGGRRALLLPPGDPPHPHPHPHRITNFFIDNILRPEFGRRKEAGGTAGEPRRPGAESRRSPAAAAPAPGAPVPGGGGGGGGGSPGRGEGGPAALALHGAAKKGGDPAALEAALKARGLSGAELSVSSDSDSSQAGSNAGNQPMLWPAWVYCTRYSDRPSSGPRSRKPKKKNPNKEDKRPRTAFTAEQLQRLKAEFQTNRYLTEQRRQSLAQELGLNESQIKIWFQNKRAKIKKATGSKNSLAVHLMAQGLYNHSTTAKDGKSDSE

[2] = molecular target: T2, EnHD (Engrailed 2 homeodomain, 60 aa) (Gallus gallus, UniProt Q05917 Q05917:200-259); assay: EMSA; four complexes with 10 to 100 ng EnHD; fragment with six NP6 copies; details: tags: E. coli pET-3a, heparin-sepharose purified, no tag stated; label: 32P
T2 sequence: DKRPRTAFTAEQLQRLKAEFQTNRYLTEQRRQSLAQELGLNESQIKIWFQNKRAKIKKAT
Protocol: FIGS. 2A, 2B and 2C: Bacterially produced EnHD binds DNA and is efficiently internalized into cells in culture. (A) Polyacrylamide gel electrophoresis is of EnHD purified from *E. coli* extracts (Coomassie staining). (B) Band shift assay, performed by incubating 0.5 ng ^32P-ATP-labeled NP6 oligonucleotides with increasing amounts (0, 10, 20, 50 and 100 ng) of purified EnHD. (C) ES cells (upper Pannels) or GMA24FIA (lower Pannels) were incubated for 2 hrs. with FITC-EnHD (300 ng/ml) (left) or FITC alone (right).
The protocol described in FIG. 1 requires the EnHD added to the culture medium to be internalized by a large number of ES cells. EnHD was produced in E. coli and purified on heparin sepharose. […] To test the binding properties of EnHD, gel shift experiments were performed using a DNA fragment containing six copies of the NP6 site (TCAATTAAAT) (SEQ ID NO:3) known to bind Drosophila Engrailed.

[3] = molecular target: T1, Engrailed 2 full length (En2, ChEn2); assay: EMSA; two shifted complexes; no ATTA core; 20 mM Tris-HCl pH 7.9, 35 mM KCl, 2.5 mM MgCl2, poly-dIdC, on ice; details: label: 32P

B1: BPAG1e promoter oligonucleotide -2225 to -2180 (dsDNA)
DNA 1: CTCAAATAATTAGTCATTAAAAAAAATAAAGGCATATGAGCCAGCCT
DNA 2: AGGCTGGCTCATATGCCTTTATTTTTTTTAATGACTAATTATTTGAG
B1: binds [1].

B2: NP6 site, six copies (dsDNA)
DNA 1: TCAATTAAAT
DNA 2: ATTTAATTGA
B2: binds [2].

B3: BPAG1e promoter oligonucleotide -694 to -665 (dsDNA)
DNA 1: CGCAGAATATTGGCTCAGTAACTAAGTGTG
DNA 2: CACACTTAGTTACTGAGCCAATATTCTGCG
B3: binds [3].
